According to PMC7641127, “MCL1 binds and negatively regulates the transcriptional function of tumor suppressor p73” (Cell Death & Disease, 2020):

How the values were obtained:
[1] = target: recombinant p73 DBD-TD (amino acids 112–398) (human) (UniProt O15350)
recombinant MCL1 (human) [2] = target: recombinant MCL1 (human) (UniProt Q07820); test: fluorescence polarisation; competitive FPA: 50 nM recombinant MCL1, 10 nM F-BAK, titration of unlabeled p73 peptide or p73DBD, 1× PBS pH 7.4
recombinant MCL1 (human) [3] = target: recombinant MCL1 (human) (UniProt Q07820); test: fluorescence polarisation; direct FPA: recombinant MCL1 with FITC-peptide, 30 min, 1× PBS pH 7.4; limit of detection of the probe 5 nM

recombinant p73 DBD-TD (amino acids 112–398) (human), sequence (O15350 112-398): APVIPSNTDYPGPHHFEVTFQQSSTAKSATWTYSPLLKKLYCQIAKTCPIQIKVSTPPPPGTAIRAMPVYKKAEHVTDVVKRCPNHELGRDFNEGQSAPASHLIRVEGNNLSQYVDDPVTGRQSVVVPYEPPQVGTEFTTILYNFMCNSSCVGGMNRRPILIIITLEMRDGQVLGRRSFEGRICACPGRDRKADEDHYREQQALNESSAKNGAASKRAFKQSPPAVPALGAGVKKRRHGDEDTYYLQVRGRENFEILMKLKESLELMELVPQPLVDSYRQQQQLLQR

“recombinant MCL1 (from UniProt Q07820 1-350) (natural protein)” was tested, and the decrease in EMSA: binding of 10 μM p73 (DBD-TD) to 1 μM FITC-GADD45 DNA on titration of recombinant MCL1 (10–200 μM), free probe quantified [1] was 27%.
In the case of “p73_(23mer) peptide (23 amino acids, from the p73 tetramerization domain), unlabeled”, the IC50 (recombinant MCL1 (human) [2]) is reported as 982 nM.
For “N-terminally labeled FITC-p73_(23mer) peptide”, the Kd (recombinant MCL1 (human) [3]) was < 5 nM.
